Test results taken from patent US20140057807A1 (UNIVERSITY OF CHICAGO, published 2014).

B1: SEQ ID NO 227 (designed binder)
chain: VSDVPRDLEVVAATPTSLLISWDAPAVTVRTYQIEYVSSYYRWTQEFTVPGSKSTATISGLKPGVVYFIYVAAVRDGPNDPISINYRT
B2: SEQ ID NO 214 (designed binder)
chain: VSDVPRDLEVVAATPTSLLISWDAPAVTVRSYHIYDYYNVHSYYGQEFTVPGSKSTATISGLKPGVSYAIYVGAVNEKQLGPISINYRT
B3: SEQ ID NO 212 (designed binder)
chain: VSDVPRDLEVVAATPTSLLISWDAPAVTVRTYSISYSFGLDYEYDQEFTVPGSKSTATISGLKPGVQYYIVVDAVAGWQYYPISINYRT
B4: SEQ ID NO 208 (designed binder)
chain: VSDVPRDLEVVAATPTSLLISWDAPAVTVRKYSIYYFSSYSGIAQEFTVPGSKSTATISGLKPGVYYGIYVEAVYHHYSPPISINYRT
B5: SEQ ID NO 226 (designed binder)
chain: VSDVPRDLEVVAATPTSLLISWDAPAVTVRYHSIGYNYYGMYQEFTVPGSKSTATISGLKPGVYYYIYVRAVTGREAAPISINYRT
B6: SEQ ID NO 236 (designed binder)
chain: VSDVPRDLEVVAATPTSLLISWDAPAVTVRYYYGIYYAGKAGGDYFITQEFTVPGSKSTATISGLKPGVEYRIYVAAVGYHYTPPISINYRT
B7: SEQ ID NO 220 (designed binder)
chain: VSDVPRDLEVVAATPTSLLISWDAPAVTVRSYSIGYFGAYRNWVQEFTVPGSKSTATISGLKPGVTYYIEVYAVYSNPVYPISINYRT
B8: SEQ ID NO 228 (designed binder)
chain: VSDVPRDLEVVAATPTSLLISWDAPAVTVRSYKISYYGYHWVYQEFTVPGSKSTATISGLKPGVSYLISVSAVDYYGVLPISINYRT
B9: SEQ ID NO 205 (designed binder)
chain: VSDVPRDLEVVAATPTSLLISWDAPAVTVRIYSIYYYSYVMRGYYFQEFTVLGSKSTATISGLKPGVNYDINVQAVYHRGWRYPISINYRT
B10: SEQ ID NO 206 (designed binder)
chain: VSDVPRDLEVVAATPTSLLISWDAPAVAVRAYSIDYYHDNGDGTQEFTVPGSKSTATISGLKPGVTYGILVYAVVSNMGIPISINYRT
B11: SEQ ID NO 203 (designed binder)
chain: VSDVPRDLEVVAATPTSLLISWDAPAVTVRAYQIRYAYYSVGRQEFTVPGSKSTATISGLRPGVKYHISVYAVNGGMVTDPISINYRT
B12: SEQ ID NO 221 (designed binder)
chain: VSDVPRDLEVVAATPTSLLISWDAPAVTVRKYQIYYYYSAYVKESQEFTVPGSKSTATISGLKPGVSYNIAVYAVSKSRYQPPISINYRT
B13: SEQ ID NO 213 (designed binder)
chain: VSDVPRDLEVVAATPTSLLISWDAPAVTVRGYSIKYGSTISADQEFTVPGSKSTATISGLKPGVFYVIMVWAVYYAYANYPISINYRT
B14: SEQ ID NO 242 (designed binder)
chain: NVSPPRRARVTDATETTITISWRTKTETITYFTVDAAPSLVVDNIQRTIKPDVRSYTITGLQPGTYYIILLYTLYNYDALPVVIDAST
B15: SEQ ID NO 210 (designed binder)
chain: VSDVPRDLEVVAATPTSLLISWDAPAVTVRKYYITYYRGRSGNQEFTVPGSKSTATISGLKPGVKYHILVSAVKYPFRRLPISINYRT
B16: SEQ ID NO 241 (designed binder)
chain: NVSPPRRARVTDATETTITISWRTKTETITSFNVVAYPSSQDGIQRTIKPDVRSYTITGLQPGTGYQIHLTTLGHLSFSPVVIDAST
B17: SEQ ID NO 230 (designed binder)
chain: VSDVPRDLEVVAATPTSLLISWDAPAVTVRNYYIGYRYTVANWCYQEFTVPGSKSTATISGLKPGVSYWITAKAVVFEGDHPISINYRT
B18: SEQ ID NO 235 (designed binder)
chain: VSDVPRDLEVVAATPTSLLISWDAPAVTVRDYWIYYRYSWPYGSQEFTVPGSKSTATISGLKPGVTYDIQVEAVYGSESGPISINYRT
B19: SEQ ID NO 244 (designed binder)
chain: NVSPPRRARVTDATETTITISWRTKTETITRFFVSAVPFETGTIQRTIKPDVRSYTITGLQPGTAYDIALYTLFGYYYYPVVIDAST
B20: SEQ ID NO 209 (designed binder)
chain: VSDVPRDLEVVAATPTSLLISWDAPAVTVRNYYIQYMVNYNDTQEFTVPGSKSTATISGLKPGVYYDIKVAAVYVAEDRPISINYRT
B21: SEQ ID NO 233 (designed binder)
chain: VSDVPRDLEVVAATPTSLLISWDAPAVTVRYYWIQYYIYYSRGTQEFTVPGSKSTATISGLKPGVNYSIGVQAVQAYFGEPISINYRT
B22: SEQ ID NO 240 (designed binder)
chain: NVSPPRRARVTDATETTITISWRTKTETITDFEVAALPMVSTGIQRTIKPDVRSYTITGLQPGTTYYISLYTLDDDGPGTPVVIDAST
B23: SEQ ID NO 224 (designed binder)
chain: VSDVPRDLEVVAATPTSLLISWDAPAVTVRYYSIAYWQLYLPVQEFTVPGSKSTATISGLKPGVSYGITVEAVMSGYSIYPISINYRT
B24: SEQ ID NO 229 (designed binder)
chain: VSDVPRDLEVVAATPTSLLISWDAPAVTVRTYYIGYGMYTYGQEFTVPGSKSTTTISGLKPGVVYDIYVWAVGFGRYVDPISINYRT
B25: SEQ ID NO 232 (designed binder)
chain: VSDVPRDLEVVAATPTSLLISWDAPAVTVRGYGIYYGDTGDTQEFTVPGSKSTATISGLKPGVMYSIVVFAVEWYMWQPISINYRT
B26: SEQ ID NO 215 (designed binder)
chain: VSDVPRDLEVVAATPTSLLISWDAPAVTVRTYVISYMSYDAQGGQNQEFTVPGSKSTATISGLKPGVAYNIIVSAVGGGQQAVPISINYRT
B27: SEQ ID NO 238 (designed binder)
chain: VSDVPRDLEVVAATPTSLLISWDAPAVTVRIYYIAYGYYPGWGRAGSQEFTVPGSKSTATISGLKPGVTYGISVSAVEERRKVPISINYRT
B28: SEQ ID NO 211 (designed binder)
chain: VSDVPRDLEVVAATPTSLLISWDAPAVTVRTYWIVYYRSVYSNGQEFTVPGSKSTATISGLKPGVIYSIRVIAVSYYYYGPISINYRT
B29: SEQ ID NO 237 (designed binder)
chain: VSDVPRDLEVVAATPTSLLISWDAPAVTVRNYSIKYKYIPYVSHQEFTVPGSKSTATISGLKPGVTYSIRVQAVYYLIERYPISINYRT
B30: SEQ ID NO 222 (designed binder)
chain: VSDVPRDLEVVAATPTSLLTSWDAPAVTVRNYAIYYYDDDTGRQEFTVPGSKSTATISGLKPGVDYYIGVEAVWYWVSSPISINYRT
B31: SEQ ID NO 231 (designed binder)
chain: VSDVPRDLEVVAATPTSLLISWDAPAVTVRKYYIGYKLQVMEPDQEFTVPGSKSTATISGLKPGVEYWIGVDAVSYYWGFDPISINYRT
B32: SEQ ID NO 225 (designed binder)
chain: VSDVPRDLEVVAAAPTSLLISWDAPAVTVRKYYIWYGYSYFVAYSSYQEFTVPGSKSTATISGLKPGVRYYIGVLAVKYPGDYYPISINYRT
B33: SEQ ID NO 223 (designed binder)
chain: VSDVPRDLEVVAATPTSLLISWDAPAVTVRTYTIWYVQRYAYSQEFTVPGSKSTATISGLKPGVSYSISVRAVSTDRYYPISINYRT
B34: SEQ ID NO 216 (designed binder)
chain: VSDVPRDLEVVAATPTSLLISWDAPAVTVREYSIYHSWTLVYRRQEFTVPGSKSTATISGLKPGVNYYIYVGAVDNGYGPDPISINYRT
B35: SEQ ID NO 243 (designed binder)
chain: NVSPPRRARVTDATETTITISWRTKTETITLFEVYADPQVSNGTYIQRTIKPDVRSYTITGLQPGTYYRIGLYTLSDYEKSTPVVIDAST
B36: SEQ ID NO 218 (designed binder)
chain: VSDVPRDLGVVAATPTSLRISWDAPAVTVRSYDIYYWYTTGGSQEFTVPGSKSTATISGLKPGVMYNIYVTAVDADVGGPISINYRT
B37: SEQ ID NO 234 (designed binder)
chain: VSDVPRDLEVVAATPTSLLISWDAPAVTVRSYRIMYSGYYAWEYSRQEFTVPGSKSTATISGLKPGVIYAIHVSAVVTNWEGPISINYRT
B38: SEQ ID NO 204 (designed binder)
chain: VSDVPRDLEVVAATPTSLLISWDAPAVTVRYYWIIYWEAWEYVQAQEFTVPGSKSTATISGLKPGVHYGIMVSAVSGEQPWYPISINYRT
B39: SEQ ID NO 219 (designed binder)
chain: VSDVPRDLEVVAATPTSLLISWDAPAVTVRRYYIGYNWQSPAWNQEFTVPGSKSTATISGLKPGVYYQIYVAAVLRYGDYAPISINYRT
B40: SEQ ID NO 207 (designed binder)
chain: VSDVPRDLEVVAATPTSLLISWDAPAVTVRSYYIGYSAYDEYGGRQEFTVPGSKSTATISGLKPGVSYSINVFAVYTMTGRAPISINYRT

biological target: T1, human serum albumin (human, UniProt P02768 25-609); assay: cradle library selection hit
T1 construct: also called HSA
T1 sequence (P02768 25-609 limits assumed): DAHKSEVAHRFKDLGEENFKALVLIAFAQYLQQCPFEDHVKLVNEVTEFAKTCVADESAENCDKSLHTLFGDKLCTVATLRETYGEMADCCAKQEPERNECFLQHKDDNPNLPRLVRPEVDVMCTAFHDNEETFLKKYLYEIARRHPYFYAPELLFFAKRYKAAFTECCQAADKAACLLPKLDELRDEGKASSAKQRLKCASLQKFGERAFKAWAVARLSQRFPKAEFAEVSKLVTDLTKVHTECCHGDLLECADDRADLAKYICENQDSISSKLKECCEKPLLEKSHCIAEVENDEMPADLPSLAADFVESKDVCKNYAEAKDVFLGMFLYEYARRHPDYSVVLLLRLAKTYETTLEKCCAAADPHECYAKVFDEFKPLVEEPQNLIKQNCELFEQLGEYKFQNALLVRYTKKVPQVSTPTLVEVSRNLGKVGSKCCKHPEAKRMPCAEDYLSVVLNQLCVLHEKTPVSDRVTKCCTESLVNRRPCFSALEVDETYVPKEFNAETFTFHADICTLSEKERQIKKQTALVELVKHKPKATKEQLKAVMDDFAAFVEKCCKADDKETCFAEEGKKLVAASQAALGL

Row | binding result | Binder
1 | binds | B1
2 | binds | B2
3 | binds | B3
4 | binds | B4
5 | binds | B5
6 | binds | B6
7 | binds | B7
8 | binds | B8
9 | binds | B9
10 | binds | B10
11 | binds | B11
12 | binds | B12
13 | binds | B13
14 | binds | B14
15 | binds | B15
16 | binds | B16
17 | binds | B17
18 | binds | B18
19 | binds | B19
20 | binds | B20

Row | binding result | Binder
21 | binds | B21
22 | binds | B22
23 | binds | B23
24 | binds | B24
25 | binds | B25
26 | binds | B26
27 | binds | B27
28 | binds | B28
29 | binds | B29
30 | binds | B30
31 | binds | B31
32 | binds | B32
33 | binds | B33
34 | binds | B34
35 | binds | B35
36 | binds | B36
37 | binds | B37
38 | binds | B38
39 | binds | B39
40 | binds | B40
